Experimental findings from patent US20250034222A1 (MONASH UNIVERSITY, published 2025) are described below.

The data set concerns the molecule itself. The data set is described as follows: SEC. In general terms: Size exclusion chromatography separates by hydrodynamic size, large species first.

B1: Wild-type IL-38 (residues 3-152), untagged after TEV cleavage of the N-terminal His10 tag (ligand)
chain: SLPMARYYIIKYADQKALYTRDGQLLVGDPVADNCCAEKICILPNRGLARTKVPIFLGIQGGSRCLACVETEEGPSLQLEDVNIEELYKGGEEATRFTFFQSSSGSAFRLEAAAWPGWFLCGPAEPQQPVQLTKESEPSARTKFYFEQSW
notes: Uncut protein was removed for the Peak A pool; also called IL-38 (WT); WT (D51A) IL-38
Consider B1, for which the binding result is listed as “binds”.
